Biological target: GST-K15P cytoplasmic domain (aa 347-489) (Kaposi's sarcoma herpesvirus (KSHV, HHV-8)) (UniProt Q9QR69)
Assay: SPR; Biacore X100; GST-K15P cytoplasmic tail amine-coupled to a CM4 chip (207 RU); His-tagged PLCγ2 cSH2 wt or SB injected at 1.5, 3, 6, 12, 24 nM, single cycle kinetics, 30 μl/min, HBS-EP buffer pH 7.4

Substance	Kd [nM]
His-tagged PLCγ2 cSH2 S677V/R695L superbinder, purified from E. coli (domain or fragment)	3.8
His-tagged PLCγ2 cSH2 domain wt, purified from E. coli (from UniProt P16885 1-1265) (domain or fragment)	5.8
